Measured values reported in patent publication US20140154255A1 (AbbVie / Abbott, published 2014).
Numbering of substitutions follows the chain as printed. Names and notes keep the numbering of the source.

Key:
[1] = biological target: T1, human VEGF-A residues 27-191 of Accession #AAV38412 (human, UniProt P15692 27-191); assay: BIAcore SPR; * detection limit
T1 construct: range 27-191
Method: (§1) The binding kinetics and affinity of the antibodies for VEGF (human VEGF-A residues 27-191 of Accession #AAV38412) was determined by using a BIAcore T200 surface plasmon resonance system (BIAcore, GE Healthcare, Piscataway, N.J.). Coupling running buffer was HBS-EP+ running buffer (10 mM HEPES, 150 mM sodium chloride, 3 mM EDTA 0.05% P-20, pH 7.4); assay running buffer was HBS-EP+ with 300 mM sodium chloride and 0.1 mg/mL BSA (Sigma A7906). Polyclonal goat anti-human Fc (Thermo Scientific prod#31125) was first immobilized to the biosensor surface in 10 mM sodium acetate, pH 4.5 using standard BIAcore amine coupling reagents (N-ethyl-N′-dimethylamino-propylcarbodiimide, EDC; N-hydroxysuccinimide, NHS; and ethanolamine HCl, pH 8.5). For binding kinetics assay a series of cycles were performed, each cycle consisted of 1) mAb capture, 2) Ag or buffer injection, 3) dissociation phase and 4) regeneration. Briefly, anti-VEGF antibodies were captured on parallel surfaces at a low flow rate of 10 μL/min. Capture levels were kept low to minimize avidity due to the dimeric nature of VEGF. No capture of the antibody was made on the reference surface to serve for primary referencing and as a negative control. […]

[2] = biological target: T2, unlabeled human VEGF (ELISA coat) (human, UniProt P15692-4 27-191, limits assumed); assay: ELISA on coated human VEGF, 1 hr incubation, against bevacizumab (WT)
T2 sequence (P15692 other isoform, or with tags, fused parts or gaps limits assumed): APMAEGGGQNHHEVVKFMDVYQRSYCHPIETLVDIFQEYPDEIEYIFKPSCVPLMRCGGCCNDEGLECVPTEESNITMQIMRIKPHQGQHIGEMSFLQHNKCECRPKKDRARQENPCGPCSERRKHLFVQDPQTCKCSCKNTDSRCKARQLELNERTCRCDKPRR
Method: (§2) Corresponding variants in DVD-Ig format were analyzed for binding kinetics by BIAcore only.
(§3) To detect identified variants binding to antigen, ELISA plates (Nunc-Immuno MaxiSorp plates, Nalge Nunc, Rochester, N.Y.) were coated overnight at 4° C. with unlabeled human VEGF at 1 μg/mL in 0.2 M sodium carbonate-bicarbonate buffer (pH 9.4, Pierce, Rockford, Ill.). The plates were then blocked with SuperBlock Blocking Buffer (Pierce, Rockford, Ill.) for 30 min and washed with Washing Buffer (PBS containing 0.1% Tween 20). All the washing steps were performed for three times. […] The plates were washed and 100 μL of goat anti-human kappa HRP-conjugated antibody (Southern Biotech, Birmingham, Ala.) diluted at 1:1000 in ELISA buffer was added to each well. After 30 minutes of incubation, plates were washed and bound antibodies were detected by addition of TMB 1 Component HRP Microwell substrate (BioFx #TMBW-1000-01). The reaction was terminated by addition of 100 μL/well of 650 nM Stop Reagent for TMB Microwell substrate and the absorbance was measured at 650 nm using a VERSAmax microplate reader (Molecular Devices, Sunnyvale, Calif.). Data were fitted using nonlinear regression with the software […]

[3] = biological target: T2, unlabeled human VEGF (ELISA coat); assay: ELISA on coated human VEGF, overnight assay, against bevacizumab (WT)
Method: as §2, §3

[4] = biological target: T1, human VEGF-A residues 27-191 of …; assay: BIAcore SPR; kd of this row is at the detection limit
Method: as §1

[5] = biological target: T1, human VEGF-A residues 27-191 of …; assay: BIAcore SPR
[6] = biological target: T1, human VEGF-A residues 27-191 of …; assay: BIAcore SPR, KD WT/KD mutant
[7] = biological target: Alexa647-conjugated rHuVEGF (Invitrogen Cat #PHG0143) (human, UniProt P15692-4 27-191, limits assumed, Alexa647-conjugated); assay: flow cytometry, surface-bound antibody on 293c18 cells, 3 nM Alexa647-rHuVEGF; design: reference not given here
Chain of Alexa647-conjugated rHuVEGF (Invitrogen Cat #PHG0143) (P15692 other isoform, or with tags, fused parts or gaps limits assumed): as above
Method: Data were gathered by way of flow cytometry using a DakoCytomation CyAn ADP flow cytometer and was analyzed using Treestar's FloJo analysis program.

[8] = biological target: T3, VEGF (R&D systems, Minneapolis, Minn.) (UniProt P15692-4 27-191, limits assumed); assay: BIAcore SPR, improvement over WT
T3 sequence (P15692 other isoform, or with tags, fused parts or gaps limits assumed): as above
Method: (§4) RL was kept low to minimize avidity due to the dimeric nature of VEGF. No capture of the antibody was made on the reference surface to serve as a negative control. Subsequently, VEGF was injected to all flow cells at a flow rate of 50 μL/min for two minutes to monitor association followed by a 25-minute flow of HBS-P running buffer (10 mM HEPES, 150 mM sodium chloride, 0.005% P-20, pH 7.4) to monitor the dissociation phase. At each cycle, VEGF, in 6 different concentrations of VEGF ranging between 0 nM and 512 nM and at four-fold increments, was injected over the surface. […] Binding data were fit to the 1:1 Langmuir model to extract binding constants from the BIAevaluate software. Double referencing was applied in each analysis to eliminate background responses from the reference surface and buffer only control. All the binding kinetics data were analyzed at least three separate determinations.

[9] = biological target: T3, VEGF (R&D systems, Minneapolis, Minn.); assay: BIAcore SPR, WT/mutant
Method: as §4

[10] = biological target: T3, VEGF (R&D systems, Minneapolis, Minn.); assay: BIAcore SPR, mutant/WT
Method: as §4

[11] = biological target: T3, VEGF (R&D systems, Minneapolis, Minn.); assay: SPR (BIAcore 2000/3000), antibody captured by anti-human Fc, VEGF as analyte, 1:1 Langmuir fit; variant corresponding to SEQ ID NO:82, the best of the variants
Method: as §4

[12] = biological target: T3, VEGF (R&D systems, Minneapolis, Minn.); assay: BIAcore SPR
Method: as §4

[13] = biological target: T2, unlabeled human VEGF (ELISA coat); assay: ELISA overnight, EC50 WT/EC50 mutant
[14] = biological target: T2, unlabeled human VEGF (ELISA coat); assay: ELISA 1 hr, EC50 WT/EC50 mutant

T1 sequence (P15692 other isoform, or with tags, fused parts or gaps limits assumed): as above

B1: bevacizumab variant H97Y (IgG format) (antibody, name in Kabat numbering, V domains shown)
VH: EVQLVESGGGLVQPGGSLRLSCAASGYTFTNYGMNWVRQAPGKGLEWVGWINTYTGEPTYAADFKRRFTFSLDTSKSTAYLQMNSLRAEDTAVYYCAKYPYYYGSSHWYFDVWGQGTLVTVSS
VL: DIQMTQSPSSLSASVGDRVTITCSASQDISNYLNWYQQKPGKAPKVLIYFTSSLHSGVPSRFSGSGSGTDFTLTISSLQPEDFATYYCQQYSTVPWTFGQGTKVEIKR
notes: IgG format; also called H97Y substitution
B1 was tested, and the koff [1] was at most 1e-05 s⁻¹, the “fold over WT (EC50 wild type/EC50 mutant), 1-hour assay” value [2] was 2.6 fold and the “fold over WT (EC50 wild type/EC50 mutant), overnight assay” value [3] was 9.3 fold. For the same binder, the Kd [4] was at most 0.243 nM, the kon [5] was 41200 M⁻¹ s⁻¹ and the affinity improvement [6] was 1.8 fold.

B2: VH K64Q (antibody, V domains shown)
VH: B1 VH with K65Q, Y101H
VL: DIQMTQSPSSLSASVGDRVTITCSASQDISNYLNWYQQKPGKAPKVLIYFTSSLHSGVPSRFSGSGSGTDFTLTISSLQPEDFATYYCQQYSTVPWTFGQGTKVEIK
notes: copies: 2 + 2
Work on B2 yielded an MFI [7] of 230.

B3: VH H97E.Y98F (antibody, V domains shown)
VH: B1 VH with Y101E, Y102F
VL: B2 VL
notes: copies: 2 + 2
B3 showed an MFI [7] of 310.

B4: VH K64S (antibody, V domains shown)
VH: B1 VH with K65S, Y101H
VL: B2 VL
notes: copies: 2 + 2
B4 was tested, and the MFI [7] was 168.

B5: bevacizumab variant corresponding to SEQ ID NO:82 (antibody, V domains shown)
VH: B1 VH with N31F, Y101D, Y103D, S105G
VL: B1 VL
For B5, the ΔKD [8] was 23.8 fold, the Δkoff [9] was 2 fold and the Δkon [10] was 11.6 fold. The Kd [11] was 0.08 nM, the Kd [12] was 0.0827 nM and the koff [12] was 0.000172 s⁻¹. It also gave a kon [12] of 2.08e+06 M⁻¹ s⁻¹.

B6: VH Y53F.K64Q (antibody, V domains shown)
VH: B1 VH with Y54F, K65Q, Y101H
VL: B2 VL
notes: copies: 2 + 2
B6 gave an MFI [7] of 217.

B7: H97 F (anti-VEGF IgG) (antibody, V domains shown)
VH: B1 VH with Y101F
VL: B2 VL
notes: copies: 2 + 2
B7 was tested, and the ELISA o/n binding [13] was 2.3 fold, the koff [1] was at most 1e-05 s⁻¹ and the Kd [4] was at most 0.17 nM. For the same binder, the kon [5] was 59000 M⁻¹ s⁻¹, the “ELISA 1hr binding” value [14] was 2 fold and the affinity improvement [6] was 2.5 fold.
